According to PMC5435986 (Nucleic Acids Research, 2017):

Key:
Assay in all cases: ITC
[1] = biological target: KIX domain of CREB-binding protein (CBP), residues 586–672 (UniProt P45481 586-672)
[2] = biological target: F612A/D622A/R624A/K667E quadruple CBPKIX mutant (UniProt P45481 586-672, F612A | D622A | R624A | K667E)
[3] = biological target: Y650A/A654Q/Y658V triple CBPKIX mutant (UniProt P45481 586-672, Y650A | A654Q | Y658V)
Sequence of Y650A/A654Q/Y658V triple CBPKIX mutant (P45481 586-672 Y650A/A654Q/Y658V): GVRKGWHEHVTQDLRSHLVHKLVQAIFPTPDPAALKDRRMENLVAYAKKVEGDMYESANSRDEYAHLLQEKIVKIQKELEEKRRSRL

Sequence of KIX domain of CREB-binding protein (CBP), residues 586–672 (P45481 586-672): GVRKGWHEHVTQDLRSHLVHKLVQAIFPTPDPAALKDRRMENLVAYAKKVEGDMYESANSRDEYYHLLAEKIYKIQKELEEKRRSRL
Sequence of F612A/D622A/R624A/K667E quadruple CBPKIX mutant (P45481 586-672 F612A/D622A/R624A/K667E): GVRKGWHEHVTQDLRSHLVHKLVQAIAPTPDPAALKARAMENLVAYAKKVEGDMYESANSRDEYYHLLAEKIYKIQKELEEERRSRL

Row | Binder | Kd [1] | fold decrease in affinity against wild-type CBPKIX [2] | Kd [3] | fold decrease in affinity against wild-type p65TA1 [1]
1 | PGYPNGLLSGDEDFSSIADMDFSALLSQISS (peptide, UniProt Q04206 521-551, looked up) [transactivation domain 1 (TA1) of the p65 subunit of NF-κB, residues 521–551, L523Y] | 15 ± 3 µM | ≥ 100 fold | 13 ± 2 µM | –
2 | PGYPNGLLSGDEDFSSIADMDFSALASQISS (peptide, UniProt Q04206 521-551, looked up) [L546A mutant of p65TA1] | – | – | – | ~1.5 fold
3 | PGYPNGLLSGDEDFSSIADMDASALLSQISS (peptide, UniProt Q04206 521-551, looked up) [F542A mutant of p65TA1] | – | – | – | ≥ 100 fold
4 | PGYPNGLLSGDEDFSSIADMDFSAALSQISS (peptide, UniProt Q04206 521-551, looked up) [L545A mutant of p65TA1] | – | – | – | ~1.5 fold
